Columns and labels:
Assay in all cases: FRET or BRET
[1] = target: formyl peptide 1 receptor fused to Rluc8 (FPR1) (UniProt P21462)
[2] = target: Smoothened fused to Rluc8 (Smo-Rluc8) (UniProt Q99835)
[3] = target: thromboxane A2 receptor fused to Rluc8 (TP-Rluc8) (UniProt P21731)
[4] = target: endothelin A receptor fused to Rluc8 (ETA-Rluc8) (UniProt P25101)
[5] = target: formyl peptide 2 receptor fused to Rluc8 (FPR2-Rluc8) (UniProt P25090)
Sequence of UniProt P25090 (P25090 whole entry, the tested form may be a part): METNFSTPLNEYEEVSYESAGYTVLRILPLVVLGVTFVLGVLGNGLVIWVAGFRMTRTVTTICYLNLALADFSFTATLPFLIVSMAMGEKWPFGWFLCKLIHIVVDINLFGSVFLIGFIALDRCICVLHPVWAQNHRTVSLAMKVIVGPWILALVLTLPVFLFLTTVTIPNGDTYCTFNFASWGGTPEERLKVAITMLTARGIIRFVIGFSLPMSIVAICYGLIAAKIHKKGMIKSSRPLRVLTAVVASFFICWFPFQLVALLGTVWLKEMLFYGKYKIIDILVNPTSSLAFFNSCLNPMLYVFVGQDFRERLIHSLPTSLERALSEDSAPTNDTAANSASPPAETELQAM

Sequence of UniProt P25101 (P25101 21-427): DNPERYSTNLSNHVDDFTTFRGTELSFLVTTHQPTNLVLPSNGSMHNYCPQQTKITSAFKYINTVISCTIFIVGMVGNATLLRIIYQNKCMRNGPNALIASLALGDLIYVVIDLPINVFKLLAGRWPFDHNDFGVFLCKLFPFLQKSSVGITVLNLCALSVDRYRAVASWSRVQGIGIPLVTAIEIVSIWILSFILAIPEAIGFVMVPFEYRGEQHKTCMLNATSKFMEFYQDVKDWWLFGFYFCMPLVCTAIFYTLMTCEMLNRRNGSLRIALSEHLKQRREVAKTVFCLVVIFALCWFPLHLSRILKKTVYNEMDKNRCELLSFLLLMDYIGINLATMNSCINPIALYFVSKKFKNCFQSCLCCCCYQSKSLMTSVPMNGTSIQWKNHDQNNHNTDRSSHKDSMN
Sequence of UniProt P21731 (P21731 whole entry, the tested form may be a part): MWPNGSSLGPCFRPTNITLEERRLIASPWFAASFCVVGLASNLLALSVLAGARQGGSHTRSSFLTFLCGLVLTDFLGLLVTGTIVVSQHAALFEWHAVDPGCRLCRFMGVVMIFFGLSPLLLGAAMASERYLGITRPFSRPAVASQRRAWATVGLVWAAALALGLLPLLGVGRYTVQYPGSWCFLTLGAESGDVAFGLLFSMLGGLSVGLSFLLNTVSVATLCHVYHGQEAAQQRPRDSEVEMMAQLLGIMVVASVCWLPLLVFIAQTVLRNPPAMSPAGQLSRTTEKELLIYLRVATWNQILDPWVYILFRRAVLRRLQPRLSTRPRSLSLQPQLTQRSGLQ
Sequence of UniProt P21462 (P21462 whole entry, the tested form may be a part): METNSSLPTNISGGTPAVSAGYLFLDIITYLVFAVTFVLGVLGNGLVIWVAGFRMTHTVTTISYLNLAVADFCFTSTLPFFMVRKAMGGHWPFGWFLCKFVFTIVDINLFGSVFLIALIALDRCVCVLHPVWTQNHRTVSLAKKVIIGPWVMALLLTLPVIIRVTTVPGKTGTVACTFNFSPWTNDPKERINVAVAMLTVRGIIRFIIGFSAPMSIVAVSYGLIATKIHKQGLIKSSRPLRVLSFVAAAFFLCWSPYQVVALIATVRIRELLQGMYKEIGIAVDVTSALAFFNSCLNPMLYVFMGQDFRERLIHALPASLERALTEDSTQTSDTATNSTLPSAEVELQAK
Sequence of UniProt Q99835 (Q99835 28-787): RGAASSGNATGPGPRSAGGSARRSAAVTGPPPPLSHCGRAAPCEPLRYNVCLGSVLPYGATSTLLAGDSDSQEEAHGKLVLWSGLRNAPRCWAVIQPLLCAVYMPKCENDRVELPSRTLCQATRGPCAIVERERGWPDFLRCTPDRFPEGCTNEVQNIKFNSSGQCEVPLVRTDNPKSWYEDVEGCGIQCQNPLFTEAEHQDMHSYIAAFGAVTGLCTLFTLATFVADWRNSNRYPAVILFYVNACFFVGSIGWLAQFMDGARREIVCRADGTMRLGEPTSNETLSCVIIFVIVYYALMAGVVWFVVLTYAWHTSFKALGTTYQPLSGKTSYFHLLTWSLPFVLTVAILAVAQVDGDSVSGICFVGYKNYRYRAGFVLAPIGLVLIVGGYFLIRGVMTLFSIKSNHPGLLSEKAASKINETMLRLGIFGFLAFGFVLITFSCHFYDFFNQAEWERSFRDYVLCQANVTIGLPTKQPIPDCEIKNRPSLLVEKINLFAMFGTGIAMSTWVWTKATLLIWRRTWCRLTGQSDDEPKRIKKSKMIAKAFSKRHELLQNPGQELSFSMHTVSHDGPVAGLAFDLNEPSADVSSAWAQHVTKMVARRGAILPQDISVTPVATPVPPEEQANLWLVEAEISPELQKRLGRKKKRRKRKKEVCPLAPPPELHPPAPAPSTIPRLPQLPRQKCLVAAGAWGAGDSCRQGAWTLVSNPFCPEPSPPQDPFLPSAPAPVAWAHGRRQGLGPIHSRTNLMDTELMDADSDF

“G12 heterotrimer, Gα12β1γ2-Venus (from UniProt Q03113;P62873;P59768) (complex)” showed an RGDP (GDP-resistance ratio) [1] of 0.96, an RGDP (GDP-resistance ratio) [2] of 1.01 and an RGDP (GDP-resistance ratio) [3] of 0.55. It also gave an RGDP (GDP-resistance ratio) [4] of 0.66.

Substance “G12 heterotrimer, Gα12β1γ2-Venus (from UniProt Q03113;P62873;P59768) (complex; other documents disagree on this pair)” has an RGDP (GDP-resistance ratio) [5] of 0.92.

For “G13 heterotrimer, Gα13β1γ2-Venus (from UniProt Q14344;P62873;P59768) (complex)”, the RGDP (GDP-resistance ratio) [3] was 0.18 and the RGDP (GDP-resistance ratio) [4] was 0.21.

“Gq heterotrimer, Gαqβ1γ2-Venus (from UniProt P50148;P62873;P59768) (complex)” gave an RGDP (GDP-resistance ratio) [4] of 0.29.

From publication PMC7474645
